Entries after “also recorded” stand apart in the source; their conditions may differ.
B1: FapCS: FapC seeds obtained by sonication of mature FapC fibrils (P. aeruginosa) (protein)
chain: GNEGGWHPPKPNPQSNNKGGATALVVDTQQNYNNKVSNFGTLNNASVSGSIKDASGNVGVNVAAGDNNQQANAAALASADASFVFGTATASTSVLQSGYGNTLNNYSNPNTASLSNSANNVSGNLGVNVAAGNFNQQKNDLAAAVSNGQYSTAGSAASQTSTGNTTVNSANYAYGGTYVSLKLNADGSYKGTSDQIGDVYLDTWEGQTHPGGSNTGHIDVDSQAQGAKDLNHDGGAFAFKEKGDVDLKGTVSGFIPAIVGFKTPVTNNASLSNSLQNVSGNVGVNIAAGGGNQQSNSLSIAAGCSSCPAGGESLGF

Experiments:
Type in all cases: in vivo, zebrafish (AB, Danio rerio)
[1] = test system: zebrafish larvae; experiment: Behavioral pathology of zebrafish larvae (Zebrabox); settings: 2 d postinjection, 1 h observation
Experimental: Aβ (HFIP‐treated) was dissolved in PBS (pH 7.4) to make a stock solution. Aβ (100 × 10^−15 M) was injected into the cerebroventricular space of one week old zebrafish larvae. Aβ with FapCS was injected at a 10:1 molar ratio (Aβ:FapCS, 100 × 10^−15:10 × 10^−15 M). PBS alone and untreated larvae were used as negative controls. Zebrafish larvae were anesthetized by adding a few drops of tricaine (0.4%) in the petri dish. When larvae stopped to move in response to the tapping stimuli, the larvae were transferred to an injection template made from 1% agarose gel. Microinjection of Aβ was performed with a calibrated microneedle and pneumatic microinjection system (PV830 WPI), under a stereomicroscope. The injection pressure was set to 20 psi, the injection volume was 10 nL, and the injections were made with a micromanipulator. The tip of the needle was inserted into the ventricular space of larvae and penetration across the soft skin of dorsal tissue (central meeting point of both telencephalons) was not more than 0.3 mm. […]
Behavior of zebrafish larvae was observed by an automated zebrafish behavior recording system Zebrabox (Viewpoint). […] The trajectories of the zebrafish movements were also recorded by the instrument and all behavior measurements were done in a 96‐well plate with one larva per well. […]

[2] = test system: zebrafish larvae; experiment: Congo red imaging of Aβ fibrillization in zebrafish larval brain; settings: for Congo red fluorescence / Aβ fibrillization in larval brain (in words): 2 d postinjection
Experimental: Aβ (HFIP‐treated) was dissolved in PBS (pH 7.4) to make a stock solution. Aβ (100 × 10^−15 M) was injected into the cerebroventricular space of one week old zebrafish larvae. Aβ with FapCS was injected at a 10:1 molar ratio (Aβ:FapCS, 100 × 10^−15:10 × 10^−15 M). PBS alone and untreated larvae were used as negative controls. Zebrafish larvae were anesthetized by adding a few drops of tricaine (0.4%) in the petri dish. When larvae stopped to move in response to the tapping stimuli, the larvae were transferred to an injection template made from 1% agarose gel. Microinjection of Aβ was performed with a calibrated microneedle and pneumatic microinjection system (PV830 WPI), under a stereomicroscope. The injection pressure was set to 20 psi, the injection volume was 10 nL, and the injections were made with a micromanipulator. The tip of the needle was inserted into the ventricular space of larvae and penetration across the soft skin of dorsal tissue (central meeting point of both telencephalons) was not more than 0.3 mm. After microinjection, the larvae were transferred to the fresh Holtfreter's buffer in petri dish and incubated at 28 ± 0.5 °C for further observation.
To monitor Aβ fibrillization in the brain of zebrafish larvae, the Aβ or Aβ + FapCS injected larvae were further injected with Congo red 2 days or one week posttreatment. Congo red (100 × 10^−15 M) was injected to the cerebroventricular space of the zebrafish larvae and placed back in Holtfreter's buffer (1 h) to allow staining of Aβ plaques in the brain tissues of larvae and elimination of excess dye. Whole mount imaging of zebrafish larvae was performed via the brightfield and red fluorescence channels of a fluorescence microscope. All images were captured under the same exposure and intensity settings of the microscope. Relative red fluorescence intensities were measured from the images by using Fiji ImageJ and represented as fraction of 1. Aβ at one week was considered as a positive control (100% or fraction 1) while buffer only was considered as a negative control (0% or fraction 0).

[3] = test system: adult zebrafish brain; experiment: TUNEL assay in brain of adult zebrafish; settings: for TUNEL assay, DNA damage / cell death (in words): n = 3
Experimental: (§1) Adult zebrafish (10 months) were employed for the study. Prior to microinjection, adult zebrafish were anesthetized by placing them in a beaker filled with ice‐chilled tricaine (0.01% in Holtfreter's buffer) for 20 s. The samples of Aβ alone and Aβ with FapCS or bacterial biofilm fragments were injected to the cerebroventricular space of adult fish with a 1 µL Hamilton glass syringe. The concentration of the Aβ peptide was 40 × 10^−6 M (in PBS, pH 7.4) while FapCS or biofilm fragments were included at a 10:1 ratio (Aβ:FapCS or biofilm fragments). The needle penetrated between left and right telencephalon for not more than 1 mm and injection volume was 1 µL. The syringe was washed with ethanol and PBS in between the injections. The injections were made under a stereomicroscope and fish were held in place with forceps. After microinjection, the fish was placed back in the water tank for recovery.
(§2) The deposition of Aβ, depletion of synaptophysin positive cells and TUNEL assay were measured by IHC. The adult fish, at 4 d or 2 weeks postinjection with Aβ and Aβ with FapCS or biofilm fragments, were euthanized by placing in ice‐chilled tricaine (0.4% in Holtfreter's buffer) for 1 min. The head of the fish was separated at pectoral fin point with a sharp blade and fixed in paraformaldehyde as described in the “Animal husbandry and ethics statement” section. The fixed heads were dehydrated by dipping in gradual concentration of ethanol, i.e., 20%, 40%, 60%, 80%, and 100% with 10 min at each step. The heads were treated with 20% sucrose overnight, mounted with Tissue Trek OCT mounting medium at −20 °C. The heads were then sectioned into […] section with a cryostat. The sections were mounted on a gelatinized glass slide and immunostained with antibodies. The sections were dried, washed thrice in PBS (pH 7.4), and TritonX‐100 (0.05% in PBS) for 5 min each. […] The sections were imaged by a fluorescence microscope and fluorescence intensities were measured from the images with Fiji ImageJ analysis.

[4] = test system: adult zebrafish brain; experiment: Synaptophysin IHC in brain of adult zebrafish; settings: for synaptophysin-positive synapses/cells (in words): n = 3
Experimental: as §1, §2

[5] = FapCS alone, 4 × 10^−6 M, Figure S13

Molecule | larval swimming behavior (in words) [1] | Congo red fluorescence / Aβ fibrillization in larval brain (in words) [2] | TUNEL assay, DNA damage / cell death (in words) ([3]; 2 weeks postinjection) | TUNEL assay, DNA damage / cell death (in words) ([3]; 4 d postinjection) | synaptophysin-positive synapses/cells (in words) ([4]; 2 weeks postinjection) | synaptophysin-positive synapses/cells (in words) ([4]; 4 d postinjection) | Congo red fluorescence in larval brain (in words) ([2]; one week postinjection, Figure S12A) | DNA damage / toxicity (in words) [3, 5] | synapse health (in words) [4, 5]
amyloid beta [Aβ] | slightly lower movement frequency | no fibrillization was observed | neuronal cell death; also recorded: DNA damage per the TUNEL assay | negative TUNEL assay | neurodegeneration of synaptophysin positive cells; also recorded: degenerate synaptophysin‐positive synapses | synaptophysin positive neuronal cells |  |  | 
B1 | significantly aggravated (**, P < 0.005) Aβ toxicity and reduced the movement frequency and total travel distance | insignificant fluorescence was observed; also recorded: did not show any retention of Congo red fluorescence in the brain |  |  |  |  | insignificant fluorescence was observed | no DNA damage; also recorded: non‐toxic nature | Healthy synapses

From publication PMC7509637 (Advanced Science, 2020)
